Assay results taken from publication PMC12329532, “GAPDH heme delivery to Indoleamine 2,3-dioxygenase 1 involves their complex formation and complementary charge pairing at the protein-protein interface” (The Journal of Biological Chemistry, 2025).
Blank lines part the entries; values can stand above or below the binder they belong to.

What was measured:
[1] = target: T1, N-terminally His6-tagged human IDO1 (indoleamine 2,3-dioxygenase 1), purified apo-IDO1 (human, UniProt P14902 1-403, Alexa Fluor 488 on Cys groups (in the fluorescence polarisation assay only)); assay: cross-linking; proteins bound to each other at RT for 30 min, then 100-fold excess of DSSO for 15 min at RT; 50 mM HEPES pH 7.4, 100 mM NaCl; trypsin digest and MS-cleavable XL-MS; conditions: both partners purified
T1 construct: human indoleamine 2,3-dioxygenase 1, cloned in the pHis-parallel1 vector; About 0.1 mol residual heme per mol protein; no effort was made to remove it; also called His6-IDO1; wild-type purified IDO1; source: E. coli BL21 (DE3), purified (Ni-NTA)

[2] = target: FLAG-tagged IDO1 K101D expressed in HEK293T cells (human, UniProt P14902 1-403, K101D); assay: cell-based or functional assay
[3] = target: FLAG-tagged IDO1 K101A expressed in HEK293T cells (human, UniProt P14902 1-403, K101A); assay: cell-based or functional assay
Chain of FLAG-tagged IDO1 K101A expressed in HEK293T cells (P14902 whole entry K101A): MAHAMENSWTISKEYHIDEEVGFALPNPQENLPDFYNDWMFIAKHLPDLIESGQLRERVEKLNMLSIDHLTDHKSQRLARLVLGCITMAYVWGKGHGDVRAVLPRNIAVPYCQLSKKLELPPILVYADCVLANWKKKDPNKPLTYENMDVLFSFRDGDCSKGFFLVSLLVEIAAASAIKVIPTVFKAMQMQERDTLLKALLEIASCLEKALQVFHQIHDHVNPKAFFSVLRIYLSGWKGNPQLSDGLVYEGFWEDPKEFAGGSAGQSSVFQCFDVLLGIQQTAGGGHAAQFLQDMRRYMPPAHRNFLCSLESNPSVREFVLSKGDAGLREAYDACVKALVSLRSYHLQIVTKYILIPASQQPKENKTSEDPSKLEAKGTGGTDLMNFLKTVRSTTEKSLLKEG

Chain of FLAG-tagged IDO1 K101D expressed in HEK293T cells (P14902 whole entry K101D): as the sequence (P14902 whole entry K101A) above, with A101D counted along it
T1 sequence (P14902 whole entry): as the sequence (P14902 whole entry K101A) above, with A101K counted along it

binding result [1]: binds
B1: rabbit GAPDH protein (Sigma #G2267) (enzyme)
chain: not shown
notes: rabbit glyceraldehyde 3-phosphate dehydrogenase; MS data were searched against P46406; The printed cross-linked residues K334 and K215 fit human GAPDH P04406; also called glyceraldehyde 3-phosphate dehydrogenase; source: bought: Sigma #G2267

14C heme counts in the IDO1 immunoprecipitates, relative to wild-type IDO1 [2]: 68 % decrease
IDO1 catalytic activity of cell supernatants, relative to wild type [2]: 65 % reduced
L-Kyn buildup in the culture medium over a 5 h period, relative to wild-type IDO1 [2]: ~60 % less
14C heme counts in the IDO1 immunoprecipitates, relative to wild-type IDO1 [3]: 68 % decrease
IDO1 catalytic activity of cell supernatants, relative to wild type [3]: 65 % reduced
L-Kyn buildup in the culture medium over a 5 h period, relative to wild-type IDO1 [3]: ~60 % less
B2: GAPDH of HEK293T cells (native) (enzyme)
chain: not shown
